Test results: publication doi:10.1101/2020.12.02.404004

Target: VcSiaP R125A Q54R1 L173R1 with N-terminal HisTEV tag (Vibrio cholerae) (UniProt Q9KR64)
Assay: crystal structure

## VcSiaP R125A Q54R1 L173R1 with N-terminal HisTEV tag (from UniProt Q9KR64 23-321) (natural protein)
  stoichiometry N: 2
